Like-named read-outs stand apart in the source and are kept apart here.

Data on one molecule can be found in publication PMC10361598 (Science Advances, 2023).

Assay [1] has as its target T1, CXCL12 (UniProt P48061 22-93). The experiment in a line: graphene field-effect transistor array.
Assay [2] deals with T1, CXCL12. The experiment in a line: graphene field-effect transistor array. This is another data set of the same source.

T1 sequence (P48061 22-93): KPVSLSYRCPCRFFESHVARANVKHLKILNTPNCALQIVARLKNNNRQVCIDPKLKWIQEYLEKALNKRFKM

B1: CXCR4^QTY-Fc (Fc fusion)
chain: PSTCSKPTCPPPELLGGPSVFIFPPKPKDTLMISRTPEVTCVVVDVSQDDPEVQFTWYINNEQVRTARPPLREQQFNSTIRVVSTLPITHQDWLRGKEFKCKVHNKALPAPIEKTISKARGQPLEPKVYTMGPPREELSSRSVSLTCMINGFYPSDISVEWEKNGKAEDNYKTTPAVLDSDGSYFLYNKLSVPTSEWQRGDVFTCSVMHEALHNHYTQKSISRSPGK
modifications: RED-NHS fluorescent label (Monolith NT Protein Labeling Kit RED-NHS), in the MST only
For B1, the Kd (usually the equilibrium constant for the complex coming apart) in assay [1] was determined as 24.8 ± 13 nM; in assay [2], 20.1 ± 9.1 nM.
